Numbering of substitutions follows the chain as printed.
B1: IP258 (Fc fusion)
chain: YSEGTFTSDYSKLLDEEAVRLFIEWLVKGPGGGGGSGGGGSGGGGSGGGGSATHTCPPCPAPEF
B2: IP260 (Fc fusion)
chain: B1 chain with D15E, R20Q
B3: IP264 (Fc fusion)
chain: B1 chain with D15E, P30K
B4: IP259 (Fc fusion)
chain: B1 chain with D15E, E16K
B5: IP262 (Fc fusion)
chain: B1 chain with D15E, V27L
B6: IP263 (Fc fusion)
chain: B1 chain with D15E, G29Q
B7: IP261 (Fc fusion)
chain: B1 chain with D15E, I23V
B8: IP253 (Fc fusion)
chain: YSEGTFTSDYSKLLDEEAVRLFIEWLLAGAPPGGSGSTASSGSGSATGGGGAATHTCPPCPAPEF
B9: IP243 (Fc fusion)
chain: YSEGTFTSDYSKLLEEEAQRLFIEWLVKGPAAAGGSGSTASSGSGSATGGGGAATHTCPPCPAPEF
B10: IP200 (Fc fusion)
chain: B9 chain with E3Q, L13I, Q19V
B11: IP212 (Fc fusion)
chain: B9 chain with Q19V, L21E, E24A
B12: IP201 (Fc fusion)
chain: YSEGTFTSDYSKLLEEEAVRLFIEWLLAGPSSGAPPPSAAAGGSGSTASSGSGSATGGGGAATHTCPPCPAPEF
B13: IP131 (Fc fusion)
chain: YSEGTFTSDYSKLLEEEAVRLFIEWLLAGGGGGGSGGGGSGGGGSGGGGSATHTCPPCPAPEF
B14: IP266 (Fc fusion)
chain: B13 chain with G30A, G31P, G32P
B15: IP267 (Fc fusion)
chain: YSEGTFTSDYSKLLEEEHVRLFIEWLVKGPGGGGGSGGGGSGGGGSGGGGSATHTCPPC
B16: IP268 (Fc fusion)
chain: B15 chain with H18A

Target: T1, mouse GLP-1 receptor (mouse, UniProt O35659 22-463)
T1 sequence (looked up): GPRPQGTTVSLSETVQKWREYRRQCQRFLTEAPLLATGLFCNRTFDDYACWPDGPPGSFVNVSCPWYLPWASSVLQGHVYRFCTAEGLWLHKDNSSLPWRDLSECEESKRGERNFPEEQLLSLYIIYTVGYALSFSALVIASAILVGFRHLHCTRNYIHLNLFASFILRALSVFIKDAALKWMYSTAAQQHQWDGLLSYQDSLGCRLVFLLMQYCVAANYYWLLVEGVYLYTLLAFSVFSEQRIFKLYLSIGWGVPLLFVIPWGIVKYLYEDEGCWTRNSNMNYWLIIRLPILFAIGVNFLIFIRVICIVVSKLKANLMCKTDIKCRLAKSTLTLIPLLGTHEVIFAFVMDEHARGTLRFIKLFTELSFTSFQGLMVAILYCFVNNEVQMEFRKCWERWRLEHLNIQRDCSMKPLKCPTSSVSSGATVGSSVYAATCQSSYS
Assay: cell-based or functional assay

Binder	cAMP EC50	cAMP EC50, Batch 2
B1	2.3 nM	–
B2	5.3 nM	–
B3	0.3 nM	–
B4	0.31 nM	–
B5	0.53 nM	–
B6	0.96 nM	–
B7	0.34 nM	–
B8	3.8 nM	–
B9	0.36 nM	–
B10	–	0.34 nM
B11	0.35 nM	–
B12	0.65 nM	0.41 nM
B13	1 nM	–
B14	0.76 nM	–
B15	10 nM	–
B16	0.28 nM	–

Target: human GLP-1 receptor (human, UniProt P43220 24-463)
Assay: cell-based or functional assay

Binder	cAMP EC50	cAMP EC50, Batch 2	cAMP EC50, Batch 3
B1	0.42 nM	–	–
B2	0.91 nM	–	–
B3	0.1 nM	–	–
B4	0.1 nM	–	–
B5	0.21 nM	–	–
B6	0.14 nM	–	–
B7	0.14 nM	–	–
B8	0.26 nM	–	–
B9	0.25 nM	0.21 nM	0.17 nM
B10	0.12 nM	0.077 nM	–
B11	0.087 nM	–	–
B12	0.2 nM	0.56 nM	–
B13	0.1 nM	–	–
B14	0.15 nM	–	–
B15	1.5 nM	–	–
B16	0.12 nM	–	–

Target: T2, rat GLP-1 receptor (rat, UniProt P32301 22-463)
T2 sequence (looked up): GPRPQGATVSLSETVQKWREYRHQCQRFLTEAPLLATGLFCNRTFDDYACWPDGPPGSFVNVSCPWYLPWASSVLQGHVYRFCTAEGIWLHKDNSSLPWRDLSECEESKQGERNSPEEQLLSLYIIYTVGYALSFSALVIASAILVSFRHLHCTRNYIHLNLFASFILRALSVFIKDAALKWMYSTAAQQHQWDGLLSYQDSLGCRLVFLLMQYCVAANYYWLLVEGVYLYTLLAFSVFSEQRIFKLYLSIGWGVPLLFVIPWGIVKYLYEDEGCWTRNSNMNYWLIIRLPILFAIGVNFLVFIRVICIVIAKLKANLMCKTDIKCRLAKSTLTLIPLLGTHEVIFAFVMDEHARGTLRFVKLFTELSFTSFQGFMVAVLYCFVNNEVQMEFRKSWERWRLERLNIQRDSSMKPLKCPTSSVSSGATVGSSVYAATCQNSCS
Assay: cell-based or functional assay

Binder	cAMP EC50	cAMP EC50, Batch 2
B1	0.12 nM	–
B2	0.25 nM	–
B3	0.026 nM	–
B4	0.029 nM	–
B5	0.036 nM	–
B6	0.042 nM	–
B7	0.028 nM	–
B8	0.21 nM	–
B9	0.024 nM	–
B10	–	0.028 nM
B11	0.034 nM	–
B12	0.098 nM	0.028 nM
B13	0.1 nM	–
B14	0.3 nM	–
B15	0.3 nM	–
B16	0.026 nM	–

Target: T3, human GIP receptor (human, UniProt P48546 22-466)
T3 sequence (looked up): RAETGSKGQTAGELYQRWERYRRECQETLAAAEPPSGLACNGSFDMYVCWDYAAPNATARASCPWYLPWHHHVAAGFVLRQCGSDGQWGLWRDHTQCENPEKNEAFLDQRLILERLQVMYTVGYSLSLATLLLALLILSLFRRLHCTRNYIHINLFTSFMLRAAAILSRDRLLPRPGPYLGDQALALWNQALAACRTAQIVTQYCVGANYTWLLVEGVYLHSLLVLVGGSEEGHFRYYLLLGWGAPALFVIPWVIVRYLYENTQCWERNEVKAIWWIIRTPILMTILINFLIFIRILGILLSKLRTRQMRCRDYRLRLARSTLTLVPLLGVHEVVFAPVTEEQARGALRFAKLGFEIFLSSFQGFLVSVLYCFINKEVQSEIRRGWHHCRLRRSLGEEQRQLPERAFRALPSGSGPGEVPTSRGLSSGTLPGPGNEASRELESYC
Assay: cell-based or functional assay

Binder	cAMP EC50	cAMP EC50, Batch 2	cAMP EC50, Batch 3	cAMP EC50, hGIPr (C3) line
B1	0.039 nM	–	–	–
B2	0.033 nM	–	–	–
B3	0.017 nM	–	–	–
B4	0.027 nM	–	–	–
B5	0.01 nM	–	–	–
B6	0.027 nM	–	–	–
B7	0.03 nM	–	–	–
B8	0.0093 nM	–	–	–
B9	0.01 nM	0.0069 nM	0.0072 nM	–
B10	0.018 nM	0.012 nM	–	–
B11	0.0081 nM	–	–	–
B12	0.011 nM	0.034 nM	–	–
B13	0.0091 nM	–	–	–
B14	0.012 nM	–	–	–
B15	0.12 nM	–	–	–
B16	0.01 nM	–	–	3.8 nM

Target: human glucagon receptor (human, UniProt P47871 26-477)
Assay: cell-based or functional assay

Binder	cAMP EC50	cAMP EC50, Batch 2	cAMP EC50, Batch 3
B1	> 19000 nM	–	–
B2	> 16000 nM	–	–
B3	> 9800 nM	–	–
B4	> 480 nM	–	–
B5	63 nM	–	–
B6	> 18000 nM	–	–
B7	> 2400 nM	–	–
B8	78 nM	–	–
B9	> 2100 nM	1400 nM	1400 nM
B10	0.11 nM	0.083 nM	–
B11	> 4000 nM	–	–
B12	3.9 nM	11 nM	–
B13	23 nM	–	–
B14	16 nM	–	–
B15	5800 nM	–	–
B16	2900 nM	–	–

Target: T4, rat GIP receptor (rat, UniProt P43219 19-455)
T4 sequence (looked up): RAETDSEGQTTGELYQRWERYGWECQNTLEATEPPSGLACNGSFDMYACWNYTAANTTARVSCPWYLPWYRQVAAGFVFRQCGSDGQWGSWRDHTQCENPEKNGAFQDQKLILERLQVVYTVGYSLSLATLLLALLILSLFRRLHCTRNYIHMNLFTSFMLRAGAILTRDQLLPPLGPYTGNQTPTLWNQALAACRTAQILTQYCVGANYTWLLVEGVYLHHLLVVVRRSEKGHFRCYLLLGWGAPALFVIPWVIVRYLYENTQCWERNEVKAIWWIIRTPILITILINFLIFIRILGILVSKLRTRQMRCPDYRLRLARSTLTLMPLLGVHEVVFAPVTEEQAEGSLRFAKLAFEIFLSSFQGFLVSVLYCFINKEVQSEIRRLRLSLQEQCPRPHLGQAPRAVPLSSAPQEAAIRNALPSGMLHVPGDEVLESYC
Assay: cell-based or functional assay

Binder	cAMP EC50	cAMP EC50, Batch 2
B1	1.5 nM	–
B2	0.45 nM	–
B3	0.094 nM	–
B4	0.033 nM	–
B5	0.019 nM	–
B6	1.1 nM	–
B7	0.27 nM	–
B8	0.024 nM	–
B9	0.091 nM	–
B10	–	0.25 nM
B11	0.12 nM	–
B12	0.23 nM	0.019 nM
B13	0.23 nM	–
B14	0.038 nM	–
B15	0.81 nM	–
B16	0.15 nM	–

Target: T5, mouse GIP receptor (mouse, UniProt Q0P543 19-460)
T5 sequence (looked up): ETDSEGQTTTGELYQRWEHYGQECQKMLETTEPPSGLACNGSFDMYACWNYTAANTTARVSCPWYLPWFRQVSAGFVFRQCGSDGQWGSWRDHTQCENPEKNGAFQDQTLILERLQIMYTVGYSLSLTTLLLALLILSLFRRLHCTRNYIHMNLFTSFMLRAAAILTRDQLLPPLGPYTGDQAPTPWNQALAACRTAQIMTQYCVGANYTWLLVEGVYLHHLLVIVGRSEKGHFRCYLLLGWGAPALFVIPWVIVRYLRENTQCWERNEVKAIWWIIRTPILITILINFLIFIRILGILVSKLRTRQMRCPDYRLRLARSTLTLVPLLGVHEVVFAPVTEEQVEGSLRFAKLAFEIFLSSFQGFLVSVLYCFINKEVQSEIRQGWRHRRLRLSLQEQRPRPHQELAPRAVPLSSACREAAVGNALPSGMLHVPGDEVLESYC
Assay: cell-based or functional assay

Binder	cAMP EC50	cAMP EC50, Batch 2
B1	870 nM	–
B2	2400 nM	–
B3	97 nM	–
B4	12 nM	–
B5	3 nM	–
B6	7000 nM	–
B7	230 nM	–
B8	0.61 nM	–
B9	32 nM	–
B10	–	160 nM
B11	190 nM	–
B12	4.3 nM	1.6 nM
B13	5.1 nM	–
B14	0.3 nM	–
B15	> 278 nM	–
B16	210 nM	–
